# Patent US20240175869A1 (BROWN UNIVERSITY, published 2024)
# What was measured:
# ALK6 [1] = target: T1, ALK6; experiment: solid-phase binding assay, half max as printed (FIG. 9)
# T1 construct: Soluble ALK6 titrated at 3.125-100 nM over immobilized MuSK constructs; That is inferred from the anti-human IgG Fc detection antibody; also called BMPR1b; BMPR1B
# ALK6 [2] = target: T1, ALK6; experiment: solid-phase binding assay, ALK6 at 100 nM, FL ECD against ΔIg2 (FIG. 7)
# T1 sequence (O00238 whole entry, the tested form may be a part): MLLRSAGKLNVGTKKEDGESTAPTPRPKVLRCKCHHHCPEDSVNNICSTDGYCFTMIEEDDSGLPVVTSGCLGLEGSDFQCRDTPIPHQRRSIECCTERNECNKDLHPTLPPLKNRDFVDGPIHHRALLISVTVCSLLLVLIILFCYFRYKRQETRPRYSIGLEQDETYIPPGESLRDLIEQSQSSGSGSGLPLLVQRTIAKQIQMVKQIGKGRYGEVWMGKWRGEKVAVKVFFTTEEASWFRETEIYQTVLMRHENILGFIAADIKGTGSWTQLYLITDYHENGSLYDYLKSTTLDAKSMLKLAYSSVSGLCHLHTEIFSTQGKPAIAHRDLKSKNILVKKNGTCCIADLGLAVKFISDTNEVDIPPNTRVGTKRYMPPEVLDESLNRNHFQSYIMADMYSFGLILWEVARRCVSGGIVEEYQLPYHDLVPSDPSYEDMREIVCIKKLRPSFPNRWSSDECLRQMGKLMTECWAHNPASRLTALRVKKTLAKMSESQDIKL
binder,measurement,setting,value
"full-length ectodomain (FL ECD) of MuSK, His-tagged (receptor) EKLPKAPVITTPLETVDALVEEVATFMCAVESYPQPEISWTRNKILIKLFDTRYSIRENGQLLTILSVEDSDDGIYCCTANNGVGGAVESCGALQVKMKPKITRPPINVKIIEGLKAVLPCTTMGNPKPSVSWIKGDSALRENSRIAVLESGSLRIHNVQKEDAGQYRCVAKNSLGTAYSKLVKLEVEVFARILRAPESHNVTFGSFVTLRCTAIGMPVPTISWIENGNAVSSGSIQENVKDRVIDSRLQLFITKPGLYTCIATNKHGEKFSTAKAAATVSIAEWSKSQKESKGYCAQYRGEVCDAVLVKDSLVFFNTSYPDPEEAQELLIHTAWNELKAVSPLCRPAAEALLCNHLFQECSPGVLPTPMPICREYCLAVKELFCAKEWLAMEGKTHRGLYRSGMHFLPVPECSKLPSMHQDPTACTRLPYLDYKKENITTFPSITSSKPSVDIPNLPASTSSFAVSPAYSMT",EC50,ALK6 [1],~500 pM
same,fold increase in absorbance against ΔIg2 MuSK,ALK6 [2],6.6 fold
